The results in this text go back to patent US20230272116A1 (Hoffmann-La Roche, published 2023).

The labels stand for the following.
T1: Carcinoembryonic antigen (CEA), Carcinoembryonic antigen-related cell adhesion molecule 5 (CEACAM5), on cells (human, UniProt P06731 35-685)
T1 construct: whole, on cells; also called CEA on MKN-45 cells; CEA in BxPC3 tumours
T1 sequence (looked up): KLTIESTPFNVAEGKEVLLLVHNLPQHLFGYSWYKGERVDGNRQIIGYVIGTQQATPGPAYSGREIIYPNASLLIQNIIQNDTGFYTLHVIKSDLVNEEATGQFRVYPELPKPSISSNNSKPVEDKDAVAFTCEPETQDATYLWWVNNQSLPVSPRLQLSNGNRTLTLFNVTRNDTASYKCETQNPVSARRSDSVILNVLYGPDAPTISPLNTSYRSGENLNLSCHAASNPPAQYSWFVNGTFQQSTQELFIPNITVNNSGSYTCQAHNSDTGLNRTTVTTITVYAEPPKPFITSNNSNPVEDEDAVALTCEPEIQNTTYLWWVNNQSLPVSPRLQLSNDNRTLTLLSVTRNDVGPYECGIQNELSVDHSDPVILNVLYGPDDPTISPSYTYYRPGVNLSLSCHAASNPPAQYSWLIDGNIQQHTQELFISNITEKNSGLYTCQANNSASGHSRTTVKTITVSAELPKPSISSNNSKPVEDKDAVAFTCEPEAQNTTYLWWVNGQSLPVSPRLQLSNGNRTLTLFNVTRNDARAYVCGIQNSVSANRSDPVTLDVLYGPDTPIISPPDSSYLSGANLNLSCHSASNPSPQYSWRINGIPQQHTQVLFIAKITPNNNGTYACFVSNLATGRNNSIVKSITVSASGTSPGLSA

B1: P1AF0712 (CEA CH1A1A split DOTA-VL) (antibody, human IgG1, kappa, L234A L235A)
heavy 1: not shown
heavy 2: QVQLVQSGAEVKKPGASVKVSCKASGYTFTEFGMNWVRQAPGQGLEWMGWINTKTGEATYVEEFKGRVTFTTDTSTSTAYMELRSLRSDDTAVYYCARWDFAYYVEAMDYWGQGTTVTVSSASTKGPSVFPLAPSSKSTSGGTAALGCLVKDYFPEPVTVSWNSGALTSGVHTFPAVLQSSGLYSLSSVVTVPSSSLGTQTYICNVNHKPSNTKVDKKVEPKSCDKTHTCPPCPAPEAAGGPSVFLFPPKPKDTLMISRTPEVTCVVVDVSHEDPEVKFNWYVDGVEVHNAKTKPREEQYNSTYRVVSVLTVLHQDWLNGKEYKCKVSNKALGAPIEKTISKAKGQPREPQVCTLPPSRDELTKNQVSLSCAVKGFYPSDIAVEWESNGQPENNYKTTPPVLDSDGSFFLVSKLTVDKSRWQQGNVFSCSVMHEALHNHYTQKSLSLSPGGGGGSGGGGSGGGGSGGGGSQAVVIQESALTTPPGETVTLTCGSSTGAVTASNYANWVQEKPDHLFTGLIGGHNNRPPGVPARFSGSLIGDKAALTIAGTQTEDEAIYFCALWYSDHWVIGGGTKLTVL
light: DIQMTQSPSSLSASVGDRVTITCKASAAVGTYVAWYQQKPGKAPKLLIYSASYRKRGVPSRFSGSGSGTDFTLTISSLQPEDFATYYCHQYYTYPLFTFGQGTKLEIKRTVAAPSVFIFPPSDEQLKSGTASVVCLLNNFYPREAKVQWKVDNALQSGNSQESVTEQDSKDSTYSLSSTLTLSKADYEKHKVYACEVTHQGLSSPVTKSFNRGEC
notes: CH1A1A anti-CEA IgG1 (knob-into-hole); also called CEA specific SPLIT antibody; P6_A
B2: P1AF0713 (CEA CH1A1A split DOTA-VH-AST) (antibody, human IgG1, kappa, L234A L235A)
heavy 1: QVQLVQSGAEVKKPGASVKVSCKASGYTFTEFGMNWVRQAPGQGLEWMGWINTKTGEATYVEEFKGRVTFTTDTSTSTAYMELRSLRSDDTAVYYCARWDFAYYVEAMDYWGQGTTVTVSSASTKGPSVFPLAPSSKSTSGGTAALGCLVKDYFPEPVTVSWNSGALTSGVHTFPAVLQSSGLYSLSSVVTVPSSSLGTQTYICNVNHKPSNTKVDKKVEPKSCDKTHTCPPCPAPEAAGGPSVFLFPPKPKDTLMISRTPEVTCVVVDVSHEDPEVKFNWYVDGVEVHNAKTKPREEQYNSTYRVVSVLTVLHQDWLNGKEYKCKVSNKALGAPIEKTISKAKGQPREPQVCTLPPSRDELTKNQVSLSCAVKGFYPSDIAVEWESNGQPENNYKTTPPVLDSDGSFFLVSKLTVDKSRWQQGNVFSCSVMHEALHNHYTQKSLSLSPG
heavy 2: not shown
light: B1 light
notes: CH1A1A anti-CEA IgG1 (knob-into-hole); also called CEA specific SPLIT antibody; P6_B
B3: CEA-split-DOTAM-VH P1AD8749 (antibody, human IgG1, kappa, L234A L235A)
heavy 1: B2 heavy 1
heavy 2: not shown
light: B1 light
notes: CH1A1A anti-CEA IgG1 (knob-into-hole, PG LALA); Both heavy chains carry VH-CH1, so the light chain pairs with each; also called PRIT Split Antibody with DOTAM-VH; hemibody

The target of assay [1] is B2. The assay is described as follows: cell-based or functional assay.
For assay [2], the target named is T1, Carcinoembryonic antigen (CEA), …. The assay is described as follows: flow cytometry on MKN-45 cells, detection with anti-huIgG(H+L)-Alexa488. As for the experimental part: MKN-45 cells were detached from the culture bottle using Trypsin and were counted using a Casy cell counter. After pelleting at 4° C., 300 g the cells were resuspended in FACS Buffer (2.5% FCS in PBS), adjusted to 2.0E+06 cells/mL dispensed to 96-well PP V-bottom-Platte (25 μL/well=5.0E+04 Zellen/well).
Both antibodies were added to the cells either separated followed by buffer or combined and incubated at 4° C. for 1 h. The cells were then washed twice in FACS buffer. After washing, the cells were resuspended in 50 μL FACS-buffer containing secondary antibody (<huIgG(H+L)>-Alexa488, c=10 μg/mL) and incubated 1 h at 4° C. The cells were then washed twice in FACS buffer and resuspended in 70 μl/well FACS buffer for measurement using a FACS Canto (BD, Pharmingen).

Assay [3] shares this target. The assay is described as follows: FACS on MKN-45 cells; hemibody mixed 1:1 with human ISO control; detection with anti-human IgG(H+L) secondary antibody.
Protocol: To assess the functionality of the split antibodies or hemibodies, MKN-45 cells were detached from the culture vessel using accutase at 37° C. for 10 minutes. Subequently, the cells were washed twice in PBS, and seeded into 96 well v-bottom plates to a final density of 4×10⁶ cells/well.
Subsequently, the cells were incubated for 1 h on ice and washed twice in PBS. The cell pellet was resuspended and 40 μl/well of detection reagent was added, either <human IgG(H+L)>FITC, (10 μg/ml) or Pb_Dotam_FITC 1:100=>(10 μg/ml) in PBS/5% FCS. After 60 min incubation on ice, the cells were washed twice in PBS and resuspended in 200 μl PBS/5% FCS for measurement of FITC fluorescence using a FACS canto.

In general, EC50 refers to the concentration giving half of the maximal effect. With B1, the “EC50 µg/ml absolute, DOTA-FITC (Pb-DOTA-FITC detection on MKN-45 cells, FACS)” value in assay [1] was 2.4 µg/mL. This molecule also registered an EC50 in assay [2] of 2.7 µg/mL.

Turning to B2, the EC50 in assay [2] came to 2.3 µg/mL.

One may read the EC50 (read off the curve) as the concentration giving half of the maximal effect. On to B3, for which the “EC50 (read off the curve)” value in assay [3] is roughly 1 µg/mL.
